Square brackets hold non-standard residues; d marks the D form. Ends that are not written are not given here. 3Pal = N[C@@H](Cc1cccnc1)C(=O)O; 4Pal = N[C@@H](Cc1ccncc1)C(=O)O; Aib = CC(C)(N)C(=O)O

We go through eleven molecules from patent US20190218268A1 (INDIANA UNIVERSITY RESEARCH AND TECHNOLOGY, published 2019).

What all share (assay): cell-based or functional assay
The target of test [1] is glucagon receptor (co-transfected in HEK293 cells with a CRE-luciferase reporter).
Another test addresses human glucagon receptor (human, UniProt P47871 26-477).
The next test has as its target human GLP-1 receptor (human, UniProt P43220 24-463).

Chain of human glucagon receptor (P47871 26-477): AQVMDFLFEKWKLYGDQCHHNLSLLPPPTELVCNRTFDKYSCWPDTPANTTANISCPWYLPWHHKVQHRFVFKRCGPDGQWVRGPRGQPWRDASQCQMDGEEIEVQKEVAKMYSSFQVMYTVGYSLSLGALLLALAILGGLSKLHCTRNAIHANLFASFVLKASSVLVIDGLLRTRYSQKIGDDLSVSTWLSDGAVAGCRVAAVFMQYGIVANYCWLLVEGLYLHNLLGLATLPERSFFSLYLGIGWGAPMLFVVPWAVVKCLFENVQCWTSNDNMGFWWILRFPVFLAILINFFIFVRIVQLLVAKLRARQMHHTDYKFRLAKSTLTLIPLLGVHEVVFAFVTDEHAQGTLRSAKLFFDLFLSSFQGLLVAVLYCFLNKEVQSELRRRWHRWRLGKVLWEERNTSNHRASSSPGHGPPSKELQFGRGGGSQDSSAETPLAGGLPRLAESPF

Take HSQGTFTSD[3Pal]SK[3Pal]LD[Aib]RRAQDFVQWLMNT [Glucagon analog 7]: in test [1], the “% bioactivity of GCG” value was found to be 57% and the “EC50 [nM] (SDV), luciferase-based glucagon receptor cAMP reporter assay” value (“EC50 [nM] (SDV)” below) turned out to be 0.0359 nM.
With HSQGT[4Pal]TSD[4Pal]SK[4Pal]LD[Aib]RRAQDFVQWLMNT [Glucagon analog 10], in test [1], the “% bioactivity of GCG” value turned out to be 24% and the “EC50 [nM] (SDV)” value came out at 0.0843 nM.
The matching figures for HSQGTFTSD[4Pal]SK[4Pal]LD[Aib]RRAQDFVQWLMNT [Glucagon analog 8]: 66% and 0.0309 nM.
The matching figures for HSQGTFTSDYSK[3Pal]LD[Aib]RRAQDFVQWLMNT [Glucagon analog 5]: 54% and 0.0379 nM.
In the case of HSQGT[3Pal]TSD[3Pal]SK[3Pal]LD[Aib]RRAQD[3Pal]VQWLMNT [Glucagon analog 11], in test [1], the “% bioactivity of GCG” value came to 1% and the “EC50 [nM] (SDV)” value came out at 2.33 nM.
The matching figures for HSQGTFTSD[3Pal]SKYLD[Aib]RRAQDFVQWLMNT [Glucagon analog 4]: 76% and 0.0268 nM.
On to HSQGTFTSDXSKYLDXRRAXDFVQWLMNT (3-Pal at position 10; Aib at position 16; dGln at position 20) [Glucagon analog 3-Pal10, Aib16, q20 (SEQ ID NO: 971)], for which the “hGcgR EC50 (pM)” value with human glucagon receptor worked out at 86 pM. The “hGLP-1R EC50 (pM)” value with human GLP-1 receptor was greater than 10000 pM.
In the same order, the values of HSQGTFTSDYSKYLD[Aib]RRA[dQ]DFVQWLMDT [Glucagon analog Aib16, q20, D28 (SEQ ID NO: 980)] are 33 pM and 7480 pM.
HSQGTFTSDYSK[4Pal]LD[Aib]RRAQDFVQWLMNT [Glucagon analog 6]: in test [1], the “% bioactivity of GCG” value was 60% and the “EC50 [nM] (SDV)” value came to 0.0339 nM.
Turning to HSQGTFTSDYSKYLD[Aib]RRA[dQ]DFVQWLMDE [Glucagon analog Aib16, q20, D28, E29 (SEQ ID NO: 981)], the “hGcgR EC50 (pM)” value with human glucagon receptor was 18 pM. Moreover, the “hGLP-1R EC50 (pM)” value with human GLP-1 receptor was greater than 10000 pM.
For HSQGT[3Pal]TSD[3Pal]SK[3Pal]LD[Aib]RRAQDFVQWLMNT [Glucagon analog 9], in test [1], the “% bioactivity of GCG” value was determined as 28% and the “EC50 [nM] (SDV)” value is 0.0714 nM.
